Results taken from paper PMC10447426 (2023).

What was measured:
[1] = biological target: T1, Fc fusion protein of mouse TNFR2 (mouse, UniProt P25119 23-258); experiment: SPR
T1 chain: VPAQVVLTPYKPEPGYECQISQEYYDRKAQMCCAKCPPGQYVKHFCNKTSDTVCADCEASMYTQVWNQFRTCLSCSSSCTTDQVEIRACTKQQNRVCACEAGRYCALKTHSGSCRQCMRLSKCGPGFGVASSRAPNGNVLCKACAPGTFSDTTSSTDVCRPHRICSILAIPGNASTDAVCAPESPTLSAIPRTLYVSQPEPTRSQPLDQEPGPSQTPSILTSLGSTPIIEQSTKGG

[2] = biological target: T1, Fc fusion protein of mouse TNFR2; experiment: SPR; BIAcore X-100; Fc fusion proteins of mouse TNFR2 and mouse TNFR1 immobilised on CM5 chip by amine coupling; HBS-EP plus running buffer; single-cycle kinetics, five concentrations up to 100 nM, 2 min injection at 30 μl/min, 2 min dissociation; R2agoTNF fitted with a monovalent and scR2agoTNF-Fc with a bivalent model (avidity); n = 1

koff [1]: 0.00277 s⁻¹ | Kd [2]: 1.75 nM
B1: R2agoTNF (ligand)
chain: VRSSSRTPSDMPVAHVVANPQAEGQLQWTNHGGNALLANGVELRDNQLVVPSEGLYLIYSQVLFSGQGCPSTHVLLTHTISRIAVSYQTPVNLLSAIRSPCQRETPEGAEANPWYEPIYLGGVFQLEPGDRLSAEINRPDYLNFPDSGEVYFGIIAL
